# Data taken from article PMC2749469 (Biochemistry, 2009).
# Biological target: the molecule itself
# Experiment: SEC
protein,measurement,value
"E. coli HemG (recombinant, six histidine-tagged) (enzyme, UniProt P0ACB4 1-181, looked up) MKTLILFSTRDGQTREIASYLASELKELGIQADVANVHRIEEPQWENYDRVVIGASIRYGHYHSAFQEFVKKHATRLNSMPSAFYSVNLVARKPEKRTPQTNSYARKFLMNSQWRPDRCAVIAGALRYPRYRWYDRFMIKLIMKMSGGETDTRKEVVYTDWEQVANFAREIAHLTDKPTLK",stoichiometry N,4
